Measurements reported in publication PMC7959245 (The Plant journal : for cell and molecular biology, 2020).

Molecular target: T1, MBP-COP1 (Arabidopsis thaliana, UniProt P43254 1-675)
T1 sequence (looked up): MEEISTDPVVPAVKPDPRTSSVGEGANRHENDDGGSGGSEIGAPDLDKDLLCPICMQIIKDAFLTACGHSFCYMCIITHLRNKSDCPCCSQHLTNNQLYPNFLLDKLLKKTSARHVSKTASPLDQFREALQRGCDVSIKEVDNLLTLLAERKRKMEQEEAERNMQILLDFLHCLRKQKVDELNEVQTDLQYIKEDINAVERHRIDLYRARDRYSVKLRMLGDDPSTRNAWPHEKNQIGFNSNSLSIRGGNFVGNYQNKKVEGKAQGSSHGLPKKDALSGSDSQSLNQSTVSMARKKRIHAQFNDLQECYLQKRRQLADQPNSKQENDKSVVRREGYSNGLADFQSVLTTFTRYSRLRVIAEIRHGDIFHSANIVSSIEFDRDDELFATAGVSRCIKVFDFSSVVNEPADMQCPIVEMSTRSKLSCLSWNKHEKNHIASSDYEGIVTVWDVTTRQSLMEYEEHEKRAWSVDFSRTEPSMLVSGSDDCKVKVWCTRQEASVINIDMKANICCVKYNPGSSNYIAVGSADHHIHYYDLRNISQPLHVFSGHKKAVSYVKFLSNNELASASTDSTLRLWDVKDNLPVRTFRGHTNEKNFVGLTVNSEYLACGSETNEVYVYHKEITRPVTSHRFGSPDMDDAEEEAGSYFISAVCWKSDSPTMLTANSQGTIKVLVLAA
Assay: pull-down

B1: GST-HEC2 (natural protein, Arabidopsis thaliana, UniProt Q9SND4 1-231, looked up)
chain: MDNSDILMNMMMQQMEKLPEHFSNSNPNPNPHNIMMLSESNTHPFFFNPTHSHLPFDQTMPHHQPGLNFRYAPSPSSSLPEKRGGCSDNANMAAMREMIFRIAVMQPIHIDPESVKPPKRKNVRISKDPQSVAARHRRERISERIRILQRLVPGGTKMDTASMLDEAIHYVKFLKKQVQSLEEHAVVNGGGMTAVAGGALAGTVGGGYGGKGCGIMRSDHHQMLGNAQILR
B1: binds.
